This passage reports Kd and stoichiometry N results from publication PMC9241938.

The subject of data set [1] is RpaB (Synechocystis sp. PCC 6803?). Briefly: EMSA. The settings on record: EMSA: 12 mM HEPES, 4 mM Tris, 12 mM KCl, 1 mM EDTA, 1 mM EGTA, 12% glycerol, 1 ug poly(dIdC); 3% agarose, 0.5x TBE; pH 8.2 or 5 tested; probe 3.85 pmol ….
For data set [2], the target named is cyAbrB1 (Sll0359), N-terminally 6*His-tagged recombinant protein (Synechocystis sp. PCC 6803). Briefly: native gel or EMSA; native SDS-PAGE (NSDS-PAGE) of the purified recombinant protein; native glycine polyacrylamide gel (15%, SDS omitted), running buffer 50 mM Tris-HCl, 200 mM glycine, 0.0375% SDS, pH 7.3, 4°C.

In the case of “TTTGCCCAATTTGACAATATATTAAGAAATCCTCATCTAACCTGTTTTTCATTGGATAATTAAAACAAGAGGAAAGATCAGGGGGCAGGAAAATAAATTACCTAATACCTAGTCCTGGTTGATAAAACCAGAGGCAGAAAACCTCCCCGTTTTCTCAAACTTGCCCAAAAGACAACTGTTGAGTTTCCCCCATTGGGACGGAGGTTATG (double strand) [PatpT66-5'UTR]”, in data set [1], the Kd amounted to 5.62 µM.
In the case of “cyAbrB1 (Sll0359), N-terminally 6*His-tagged recombinant protein (natural protein)”, the stoichiometry N in data set [2] was 2.
